Laboratory results taken from publication PMC7515738, “Identification and characterization of hippuristanol-resistant mutants reveals eIF4A1 dependencies within mRNA 5′ leader regions”.

Key:
Settings in all cases: tags: His6, single strand
[1] = molecular target: eIF4A1 wt (UniProt P60842 1-406); assay: fluorescence polarization; no Hipp; FP: 1 uM recombinant protein, FAM-poly r(AG)8, vehicle (0.1% DMSO) or Hipp, 30 min; buffer, salt, pH and temperature not given in the material
[2] = molecular target: eIF4A1 G370S (UniProt P60842 1-406, G370S); assay: fluorescence polarization; no Hipp; similar to wt; FP: 1 uM recombinant protein, FAM-poly r(AG)8, vehicle (0.1% DMSO) or Hipp, 30 min; buffer, salt, pH and temperature not given in the material
Chain of eIF4A1 G370S (P60842 whole entry G370S): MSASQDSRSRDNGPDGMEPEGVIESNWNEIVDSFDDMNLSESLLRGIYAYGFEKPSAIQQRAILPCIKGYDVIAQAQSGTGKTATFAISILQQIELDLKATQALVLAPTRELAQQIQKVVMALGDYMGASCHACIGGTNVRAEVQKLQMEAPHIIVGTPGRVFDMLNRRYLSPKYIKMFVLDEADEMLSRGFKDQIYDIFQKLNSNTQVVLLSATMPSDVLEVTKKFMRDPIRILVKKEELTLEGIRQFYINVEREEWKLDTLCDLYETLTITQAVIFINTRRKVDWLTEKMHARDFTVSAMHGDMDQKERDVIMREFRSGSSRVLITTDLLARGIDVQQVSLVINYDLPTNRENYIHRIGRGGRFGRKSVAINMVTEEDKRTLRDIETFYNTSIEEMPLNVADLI

[3] = molecular target: eIF4A1 G361C (UniProt P60842 1-406, G361C); assay: as above
Chain of eIF4A1 G361C (P60842 whole entry G361C): as the sequence (P60842 whole entry G370S) above, with G361C, S370G counted along it

Measured: binding result

Chain of eIF4A1 wt (P60842 whole entry): as the sequence (P60842 whole entry G370S) above, with S370G counted along it

B1: poly r(AG)8 (ssRNA)
RNA: AGAGAGAGAGAGAGAG
binds: all assays above
